Measurements taken from US20220089736A1.

What was measured:
[1] = target: CD28 (Cluster of Differentiation 28) (human) (UniProt P10747); experiment: flow cytometry, binding to human pan T cells; antibody without Vβ17 arm
[2] = target: CD28 (Cluster of Differentiation 28) (human) (UniProt P10747); experiment: flow cytometry, binding to H929 cells (carry CD28 and BCMA; binding largely dependent upon CD28 arm)

B1: VB28B7 (protein, part only; not given: scFvs, linkers, constant regions, not shown: another chain or arm of the molecule; a dimerising Fc or GST; small tags and cut ends)
VH: QVQLQQPGSELVRPGASVKLSCKASGYTFTSYWMHWVKQRHGQGLEWIGNIYPGSGRTNYDEKFKSKGTLTVDTSSRTAYMHLSSLTSEDSAVYYCTREHYGSNSHPMDYWGQGTSVTVSS
VL: DIQMTQSPASLSASVGETVTITCGASENIYGSLNWYQRKQGKSPQLLIYGATNLADGMSSRFSGSGSGRQFSLKISSLHPDDVATYYCQNLLSTPYTFGGGTKLELK
- EC50 [1]: 0.06 µg/mL
- EC50 [2]: 0.1 µg/mL

B2: VB28B9 (protein, part only; not given: scFvs, linkers, constant regions, not shown: another chain or arm of the molecule; a dimerising Fc or GST; small tags and cut ends)
VH: QVQLQQWGAGLLKPSETLSLTCAVYGGSFSGYYWNWIRQPPGKGLQWIGEINHSGTTNYNPSLKSRVTISVDTSKNQFSLKLSSLTAADTAVYYCARGEAVALYWGQGTLVTVSS
VL: EIVMTQSPATLSVSPGERATLSCRASQSVNSNLAWYQQKPGQAPRLLIYGASARATGIPARFSGSGSGTEFTLTISSLQSEDFAVYYCQQYYNWPLTFGGGTKVEIK
- EC50 [1]: 0.15 µg/mL
- EC50 [2]: 0.14 µg/mL
